# In patent US20150252117A1 (Genentech, published 2015):
# Positions count from the first letter of the chain named. Names and notes keep the numbering of the source.
# T1: Human Jag2-DSL-EGF1-4 (human, UniProt Q9Y219 24-388)
# T1 construct: also called human Jagged2; hJag2
# T1 sequence: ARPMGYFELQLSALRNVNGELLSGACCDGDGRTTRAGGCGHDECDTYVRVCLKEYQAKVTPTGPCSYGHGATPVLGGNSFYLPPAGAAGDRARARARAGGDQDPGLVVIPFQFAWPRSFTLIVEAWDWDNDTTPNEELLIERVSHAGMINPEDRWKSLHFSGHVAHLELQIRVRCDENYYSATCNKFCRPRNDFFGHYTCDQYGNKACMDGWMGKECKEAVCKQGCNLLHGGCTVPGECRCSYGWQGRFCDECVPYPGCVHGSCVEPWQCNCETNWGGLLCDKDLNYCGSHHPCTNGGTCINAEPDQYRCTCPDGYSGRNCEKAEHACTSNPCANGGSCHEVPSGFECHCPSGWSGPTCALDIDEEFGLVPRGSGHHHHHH
# T2: Murine Jag2-DSL-EGF1-4 (mouse, UniProt Q9QYE5 27-388)
# T2 construct: also called murine Jagged2; Mouse Jag2
# T2 sequence: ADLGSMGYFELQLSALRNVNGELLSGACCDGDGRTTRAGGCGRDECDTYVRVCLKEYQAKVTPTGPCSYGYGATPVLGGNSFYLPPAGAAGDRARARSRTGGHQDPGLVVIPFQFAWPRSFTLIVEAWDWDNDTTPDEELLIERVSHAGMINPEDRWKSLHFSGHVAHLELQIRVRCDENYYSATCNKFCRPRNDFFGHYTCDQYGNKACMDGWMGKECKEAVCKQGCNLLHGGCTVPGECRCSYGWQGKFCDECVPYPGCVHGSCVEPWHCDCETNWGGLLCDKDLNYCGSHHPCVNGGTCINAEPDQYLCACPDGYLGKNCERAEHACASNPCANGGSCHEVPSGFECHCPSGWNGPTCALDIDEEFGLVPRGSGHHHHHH
# T3: human Delta-like 1 (DSL-EGF1-4 fragment) (human, UniProt O00548 18-368, limits assumed)
# T3 construct: domain: DSL-EGF1-4; Recombinant purified Notch ligand; also called human DLL1; hDLL1
# T3 sequence (looked up): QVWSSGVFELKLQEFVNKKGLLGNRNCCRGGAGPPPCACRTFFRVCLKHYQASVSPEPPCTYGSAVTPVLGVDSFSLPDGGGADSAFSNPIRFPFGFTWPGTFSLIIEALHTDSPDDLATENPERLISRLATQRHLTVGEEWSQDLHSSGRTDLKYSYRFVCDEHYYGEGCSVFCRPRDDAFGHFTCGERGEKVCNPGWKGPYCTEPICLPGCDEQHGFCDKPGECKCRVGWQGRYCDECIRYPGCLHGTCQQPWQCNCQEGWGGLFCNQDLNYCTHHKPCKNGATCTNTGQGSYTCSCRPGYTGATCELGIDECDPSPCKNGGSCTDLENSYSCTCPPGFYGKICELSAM
# B1: Antibody A (antibody, human IgG1, V domains shown)
# VH: EVQLVESGGGLVQPGGSLRLSCAASGFTFSNYGIHWVRQAPGKGLEWVGWITPDGGYTDYADSVKGRFTISADTSKNTAYLQMNSLRAEDTAVYYCARAGSWFAYWGQGTLVTVSS
# VL: DIQMTQSPSSLSASVGDRVTITCRASQDVSTAVAWYQQKPGKAPKLLIYSASFLYSGVPSRFSGSGSGTDFTLTISSLQPEDFATYYCQQSYTTPPTFGQGTKVEIK
# notes: Only the variable domains are tied to the tested antibody; also called parent antibody A; anti-Jagged1 antibody A
# B2: Antibody A-1 (antibody, human IgG1, kappa, V domains shown)
# VH: B1 VH with W102L
# VL: DIQMTQSPSSLSASVGDRVTITCRASQDVSTAVAWYQQKPGKAPKLLIYSASFLYSGVPSRFSGSGSGTDFTLTISSLQPEDFATYYCQQYYTTATTFGQGTKVEIKR
# B3: Antibody B (antibody, V domains shown)
# VH: EVQLVESGGGLVQPGGSLRLSCAASGFTFTSYDIHWVRQAPGKGLEWVGGISPADGDTDYANSVKGRFTISADTSKNTAYLQMNSLRAEDTAVYYCARNDYDVRSVGSGMDYWGQGTLVTVSS
# VL: B1 VL
# notes: Anti-Jagged2 antibody, human IgG1; also called parental antibody of antibody B-3
# B4: Antibody A-1 S101A (antibody, V domains shown)
# VH: B1 VH with S101A, W102L
# VL: B1 VL with S91Y, P95A, P96T
# notes: Mutant of A-1 expressed in mammalian cells; also called A-1 G100, S101A
# B5: Antibody B-3 (antibody, human IgG1, V domains shown)
# VH: B3 VH with S105F
# VL: B1 VL with Y92F, T94A
# notes: also called anti-Jagged2 antibody B-3; anti-Jag2 B-3
# B6: Antibody A-2 (antibody, human IgG1, V domains shown)
# VH: B1 VH with P53G, D54N, T58S
# VL: B1 VL
# notes: also called anti-Jagged1 antibody A-2
# Tests used:
# Murine Jag1-DSL-EGF1-4 [1] = molecular target: T4, Murine Jag1-DSL-EGF1-4 (mouse, UniProt Q9QXX0 34-377); assay: ELISA (screening, FIG. 8)
# T4 construct: also called murine Jagged1; mouse Jagged1
# Human Jag2-DSL-EGF1-4 [2] = molecular target: T1, Human Jag2-DSL-EGF1-4; assay: ELISA on human Jagged2 (Jag-2 bars), OD450 nm
# Murine Jag2-DSL-EGF1-4 [3] = molecular target: T2, Murine Jag2-DSL-EGF1-4; assay: SPR (BIAcore-3000), IgG captured, Jag DSL-EGF1-4 as analyte
# Human Jag1-DSL-EGF1-4 [4] = molecular target: T5, Human Jag1-DSL-EGF1-4 (human, UniProt P78504 34-377); assay: SPR (BIAcore-3000), IgG captured, Jag DSL-EGF1-4 as analyte, 25 C
# T5 construct: Secreted protein from BEVS cells; also called human Jagged1; hJag1; not shown: TEV protease cleavage site and 6-His tag at the C-terminus
# [5] = molecular target: T6, purified Jag1 extracellular domain protein fragment (Homo sapiens (Human), UniProt P78504 34-377); assay: BIAcore (SPR), purified Jag1 extracellular domain fragment
# T6 construct: not shown: C-terminal TEV protease cleavage site and 6-His tag of the human Jag1-DSL-EGF1-4 antigen
# Human Jag1-DSL-EGF1-4 [6] = molecular target: T5, Human Jag1-DSL-EGF1-4; assay: ELISA on human Jagged1 (Jag-1 bars), OD450 nm
# Murine Jag1-DSL-EGF1-4 [7] = molecular target: T4, Murine Jag1-DSL-EGF1-4; assay: SPR (BIAcore-3000), IgG captured, Jag DSL-EGF1-4 as analyte
# Human Jag2-DSL-EGF1-4 [8] = molecular target: T1, Human Jag2-DSL-EGF1-4; assay: SPR (BIAcore-3000), IgG captured, Jag DSL-EGF1-4 as analyte, 25 C
# Murine Jag2-DSL-EGF1-4 [9] = molecular target: T2, Murine Jag2-DSL-EGF1-4; assay: as above
# [10] = molecular target: T7, human Delta-like 4 (DSL-EGF1-4 fragment) (human, UniProt Q9NR61 27-365, limits assumed); assay: SPR (BIAcore T200), IgG1 captured, ligand as analyte
# T7 construct: domain: DSL-EGF1-4; Recombinant purified Notch ligand; also called human DLL4; hDLL4
# [11] = molecular target: T8, murine Delta-like 4 (DSL-EGF1-4 fragment) (mouse, UniProt Q9JI71 27-366, limits assumed); assay: as above
# T8 construct: domain: DSL-EGF1-4; Recombinant purified Notch ligand; also called murine DLL4; mouse DLL4
# Human Jag2-DSL-EGF1-4 [12] = molecular target: T1, Human Jag2-DSL-EGF1-4; assay: SPR (BIAcore T200), IgG1 captured, ligand as analyte, 25 C
# Murine Jag2-DSL-EGF1-4 [13] = molecular target: T2, Murine Jag2-DSL-EGF1-4; assay: as above
# [14] = molecular target: T3, human Delta-like 1 (DSL-EGF1-4 fragment); assay: SPR (BIAcore T200), IgG1 captured, ligand as analyte; value marked * (asterisk not explained)
# [15] = molecular target: T9, murine Delta-like 1 (DSL-EGF1-4 fragment) (mouse, UniProt Q61483 18-367, limits assumed); assay: as above
# T9 construct: domain: DSL-EGF1-4; Recombinant purified Notch ligand; also called murine DLL1; mouse DLL1
# Human Jag1-DSL-EGF1-4 [16] = molecular target: T5, Human Jag1-DSL-EGF1-4; assay: SPR (BIAcore T200), IgG1 captured, ligand as analyte, 25 C
# Murine Jag1-DSL-EGF1-4 [17] = molecular target: T4, Murine Jag1-DSL-EGF1-4; assay: as above
# Human Jag2-DSL-EGF1-4 [18] = molecular target: T1, Human Jag2-DSL-EGF1-4; assay: ELISA, Notch ligand coated at 1 ug/ml, serial 3-fold dilutions of IgG, anti-human Fab-peroxidase, A630 [left panel, A-2]
# Murine Jag2-DSL-EGF1-4 [19] = molecular target: T2, Murine Jag2-DSL-EGF1-4; assay: as above
# [20] = molecular target: T3, human Delta-like 1 (DSL-EGF1-4 fragment); assay: as above
# [21] = molecular target: T9, murine Delta-like 1 (DSL-EGF1-4 …); assay: as above
# [22] = molecular target: T7, human Delta-like 4 (DSL-EGF1-4 fragment); assay: as above
# [23] = molecular target: T8, murine Delta-like 4 (DSL-EGF1-4 …); assay: as above
binder,measurement,setting,value
B1,binding result,Murine Jag1-DSL-EGF1-4 [1],binds
same,binding result,Human Jag2-DSL-EGF1-4 [2],no binding
same,binding result,Murine Jag2-DSL-EGF1-4 [3],no binding (tested: 0.5 µM)
same,Kd,Human Jag1-DSL-EGF1-4 [4],94 nM
same,koff,Human Jag1-DSL-EGF1-4 [4],0.0021 s⁻¹
same,kon,Human Jag1-DSL-EGF1-4 [4],23000 M⁻¹ s⁻¹
B2,Kd,[5],0.799 nM
B3,binding result,Human Jag1-DSL-EGF1-4 [6],no binding
same,binding result,Murine Jag1-DSL-EGF1-4 [7],no binding
same,Kd,Human Jag2-DSL-EGF1-4 [8],1 nM
same,koff,Human Jag2-DSL-EGF1-4 [8],0.0026 s⁻¹
same,kon,Human Jag2-DSL-EGF1-4 [8],2.5e+06 M⁻¹ s⁻¹
same,Kd,Murine Jag2-DSL-EGF1-4 [9],1 nM
same,koff,Murine Jag2-DSL-EGF1-4 [9],0.0026 s⁻¹
same,kon,Murine Jag2-DSL-EGF1-4 [9],2.5e+06 M⁻¹ s⁻¹
B4,Kd,[5],4.62 nM
same,koff,[5],0.000675 s⁻¹
same,kon,[5],146000 M⁻¹ s⁻¹
B5,binding result,[10],no binding
same,binding result,[11],no binding
same,Kd,Human Jag2-DSL-EGF1-4 [12],0.041 nM
same,koff,Human Jag2-DSL-EGF1-4 [12],0.000188 s⁻¹
same,kon,Human Jag2-DSL-EGF1-4 [12],4.58e+06 M⁻¹ s⁻¹
same,Kd,Murine Jag2-DSL-EGF1-4 [13],0.0571 nM
same,koff,Murine Jag2-DSL-EGF1-4 [13],4.4e-05 s⁻¹
same,kon,Murine Jag2-DSL-EGF1-4 [13],771000 M⁻¹ s⁻¹
same,Kd,Murine Jag2-DSL-EGF1-4 [9],0.3 nM
same,koff,Murine Jag2-DSL-EGF1-4 [9],0.000175 s⁻¹
same,kon,Murine Jag2-DSL-EGF1-4 [9],580000 M⁻¹ s⁻¹
same,Kd,[14],349 nM
same,Kd,[15],72.3 nM
B6,Kd,Human Jag1-DSL-EGF1-4 [16],0.382 nM
same,koff,Human Jag1-DSL-EGF1-4 [16],9.23e-05 s⁻¹
same,kon,Human Jag1-DSL-EGF1-4 [16],242000 M⁻¹ s⁻¹
same,Kd,Murine Jag1-DSL-EGF1-4 [17],0.15 nM
same,koff,Murine Jag1-DSL-EGF1-4 [17],5.77e-05 s⁻¹
same,kon,Murine Jag1-DSL-EGF1-4 [17],385000 M⁻¹ s⁻¹
same,Kd,Human Jag1-DSL-EGF1-4 [4],0.3 nM
same,koff,Human Jag1-DSL-EGF1-4 [4],7.1e-05 s⁻¹
same,kon,Human Jag1-DSL-EGF1-4 [4],230000 M⁻¹ s⁻¹
same,binding result,Human Jag2-DSL-EGF1-4 [18],no binding
same,binding result,Murine Jag2-DSL-EGF1-4 [19],no binding
same,binding result,[20],no binding
same,binding result,[21],no binding
same,binding result,[22],no binding
same,binding result,[23],no binding
